{"source": "paper PMC7604486", "target": "mouse Rae1–Nup98^GLEBS complex (tags removed) (mouse) (UniProt Q8C570)", "assay": "SEC", "data": [{"substance": "MHV-68 ORF10 (wild type, full-length, no tag) (natural protein)", "values": [{"measurement": "stoichiometry N", "result": 1}]}]}
